Test results as given in patent US20220042026A1 (UNIVERSITY COURT OF THE UNIVERSITY OF GLASGOW, published 2022).

Molecular target: the molecule itself
Assay: immunoblot of unboiled N. benthamiana leaf extract, SDS-PAGE, anti-Kcv detection

B1: Blue Light-INduced K+ channel 1 (BLINK1) (other)
chain: MGCTVSAELATTLERIEKNFVITDPRLPDNPIIFASDSFLQLTEYSREEILGRNCRFLQGPETDRATVRKIRDAIDNQTEVTVQLINYTKSGKKFWNLFHLQPMRDQKGDVQYFIGVQLDGTEHVRDAAEREGVMLIKKTAEVFSKFLTRTEPFMIHLFILAMFVMIYKFFPGGFENNFSVANPDKKASWIDCIYFGVTTHSTVGFGDILPKTTGAKLCTIAHIVTVFFIVLTL
notes: Expressed transiently under the CaMV 35S promoter in N. benthamiana leaves; Unboiled total protein extract was run on SDS-PAGE; The tetramer was detected, with an expected Mw of 106.5 kDa; also called synthetic, blue light-gated K+ channel
binding result: binds
